In patent US20220380459A1 (DRAGONFLY THERAPEUTICS, published 2022):

B1: A40.I35 (bispecific antibody)
NKG2D-binding VH: QVQLQQWGAGLLKPSETLSLTCAVYGGSFSGYYWSWIRQPPGKGLEWIGEIDHSGSTNYNPSLKSRVTISVDTSKNQFSLKLSSVTAADTAVYYCARARGPWSFDPWGQGTLVTVSS
NKG2D-binding VL: DIQMTQSPSTLSASVGDRVTITCRASQSIGSWLAWYQQKPGKAPKLLIYKASSLESGVPSRFSGSGSGTEFTLTISSLQPDDFATYYCQQYHSFYTFGGGTKVEIK
CD33-binding VH: QLQLQESGPGLVKPSETLSLTCTVSGGSISSTDYYWGWIRQPPGKGLEWIGSIGYSGTYYNPSLKSRVTISVDTSKNQFSLKLSSVTAADTAVYYCARETAHDVHGMDVWGQGTTVTVSS
CD33-binding VL: EIVLTQSPATLSLSPGERATLSCRASHSVYSYLAWYQQKPGQAPRLLIYDASNRATGIPARFSGSGSGTDFTLTISSLEPEDFAVYYCQQYDNLPTFGGGTKVEIK
B2: F47.I35 (bispecific antibody)
NKG2D-binding VH: QVQLQQWGAGLLKPSETLSLTCAVYGGSFSGYYWSWIRQPPGKGLEWIGEIDHSGSTNYNPSLKSRVTISVDTSKNQFSLKLSSVTAADTAVYYCARARGPWSFDPWGQGTLVTVSS
NKG2D-binding VL: DIQMTQSPSTLSASVGDRVTITCRASQSISSWLAWYQQKPGKAPKLLIYKASSLESGVPSRFSGSGSGTEFTLTISSLQPDDFATYYCQQYDTFITFGGGTKVEIK
CD33-binding VH: QLQLQESGPGLVKPSETLSLTCTVSGGSISSTDYYWGWIRQPPGKGLEWIGSIGYSGTYYNPSLKSRVTISVDTSKNQFSLKLSSVTAADTAVYYCARETAHDVHGMDVWGQGTTVTVSS
CD33-binding VL: EIVLTQSPATLSLSPGERATLSCRASHSVYSYLAWYQQKPGQAPRLLIYDASNRATGIPARFSGSGSGTDFTLTISSLEPEDFAVYYCQQYDNLPTFGGGTKVEIK
B3: A44.G59 (bispecific antibody)
NKG2D-binding VH: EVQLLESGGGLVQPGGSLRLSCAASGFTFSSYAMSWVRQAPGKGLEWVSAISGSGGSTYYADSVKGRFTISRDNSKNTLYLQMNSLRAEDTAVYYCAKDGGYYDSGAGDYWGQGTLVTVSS
NKG2D-binding VL: DIQMTQSPSSVSASVGDRVTITCRASQGIDSWLAWYQQKPGKAPKLLIYAASSLQSGVPSRFSGSGSGTDFTLTISSLQPEDFATYYCQQGVSYPRTFGGGTKVEIK
CD33-binding VH: EVQLVESGGGLVQPGGSLRLSCAASGFTFSSYGMSWVRQAPGKGLEWVANIKQDGSEKYYVDSVKGRFTISRDNAKNSLYLQMNSLRAEDTAVYYCAREGGPYYDSSGYFVYYGMDVWGQGTTVTVSS
CD33-binding VL: DIQMTQSPSTLSASVGDRVTITCRASQSISSWLAWYQQKPGKAPKLLIYDASSLESGVPSRFSGSGSGTEFTLTISSLQPDDFATYYCQQYESFPTFGGGTKVEIK
B4: A44.H76 (bispecific antibody)
NKG2D-binding VH: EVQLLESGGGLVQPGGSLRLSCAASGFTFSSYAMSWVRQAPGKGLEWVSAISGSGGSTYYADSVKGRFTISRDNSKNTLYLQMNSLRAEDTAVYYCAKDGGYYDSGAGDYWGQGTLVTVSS
NKG2D-binding VL: DIQMTQSPSSVSASVGDRVTITCRASQGIDSWLAWYQQKPGKAPKLLIYAASSLQSGVPSRFSGSGSGTDFTLTISSLQPEDFATYYCQQGVSYPRTFGGGTKVEIK
CD33-binding VH: EVQLLESGGGLVQPGGSLRLSCAASGFTFSKYTMSWVRQAPGKGLEWVSAIVGSGESTYFADSVKGRFTISRDNSKNTLYLQMNSLRAEDTAVYYCAREGGPYYDSSGYFVYYGMDVWGQGTTVTVSS
CD33-binding VL: DIQMTQSPSTLSASVGDRVTITCRASQSISSWLAWYQQKPGKAPKLLIYKASSLESGVPSRFSGSGSGTEFTLTISSLQPDDFATYYCQQYDDLPTFGGGTKVEIK
B5: A44.I07 (bispecific antibody)
NKG2D-binding VH: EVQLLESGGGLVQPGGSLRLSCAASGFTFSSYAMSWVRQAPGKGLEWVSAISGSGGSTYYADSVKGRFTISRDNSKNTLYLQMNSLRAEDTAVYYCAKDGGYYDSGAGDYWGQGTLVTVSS
NKG2D-binding VL: DIQMTQSPSSVSASVGDRVTITCRASQGIDSWLAWYQQKPGKAPKLLIYAASSLQSGVPSRFSGSGSGTDFTLTISSLQPEDFATYYCQQGVSYPRTFGGGTKVEIK
CD33-binding VH: EVQLVESGGGLVQPGGSLRLSCAASGFTFGSYWMSWVRQAPGKGLEWVATIKQDGSEKSYVDSVKGRFTISRDNAKNSLYLQMNSLRAEDTAVYYCARPLNAGELDVWGQGTMVTVSS
CD33-binding VL: DIQMTQSPSTLSASVGDRVTITCRASQSISSWLAWYQQKPGKAPKLLIYEASSLESGVPSRFSGSGSGTEFTLTISSLQPDDFATYYCQQSQSYPPITFGGGTKVEIK
B6: A44.I35 (bispecific antibody)
NKG2D-binding VH: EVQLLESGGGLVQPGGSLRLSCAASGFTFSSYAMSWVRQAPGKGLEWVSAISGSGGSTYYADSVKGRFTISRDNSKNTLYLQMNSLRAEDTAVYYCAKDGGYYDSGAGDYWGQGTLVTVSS
NKG2D-binding VL: DIQMTQSPSSVSASVGDRVTITCRASQGIDSWLAWYQQKPGKAPKLLIYAASSLQSGVPSRFSGSGSGTDFTLTISSLQPEDFATYYCQQGVSYPRTFGGGTKVEIK
CD33-binding VH: QLQLQESGPGLVKPSETLSLTCTVSGGSISSTDYYWGWIRQPPGKGLEWIGSIGYSGTYYNPSLKSRVTISVDTSKNQFSLKLSSVTAADTAVYYCARETAHDVHGMDVWGQGTTVTVSS
CD33-binding VL: EIVLTQSPATLSLSPGERATLSCRASHSVYSYLAWYQQKPGQAPRLLIYDASNRATGIPARFSGSGSGTDFTLTISSLEPEDFAVYYCQQYDNLPTFGGGTKVEIK

Target: T1, human CD33 expressed on cells (human, UniProt P20138 18-364)
T1 construct: endogenous CD33 of human AML cell lines and blood monocytes; also called cell-expressed CD33 (Molm-13, Mv4-11, monocytes)
T1 sequence (P20138 18-364): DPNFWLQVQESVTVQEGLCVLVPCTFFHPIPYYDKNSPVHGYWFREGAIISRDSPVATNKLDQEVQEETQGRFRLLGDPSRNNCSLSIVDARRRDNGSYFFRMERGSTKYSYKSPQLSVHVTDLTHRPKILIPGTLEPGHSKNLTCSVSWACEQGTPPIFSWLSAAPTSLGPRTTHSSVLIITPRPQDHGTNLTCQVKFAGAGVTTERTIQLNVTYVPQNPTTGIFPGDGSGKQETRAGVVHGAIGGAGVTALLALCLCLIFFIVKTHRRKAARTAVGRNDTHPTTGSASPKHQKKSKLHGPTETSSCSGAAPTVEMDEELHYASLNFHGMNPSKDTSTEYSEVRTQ
Assay: flow cytometry on Molm-13 cells, fluorophore-conjugated anti-human IgG secondary antibody, MFI as fold over background (FOB)
Procedure: Binding of the TriNKET was detected using a fluorophore conjugated anti-human IgG secondary antibody. Cells were analyzed by flow cytometry, binding MFI to cell expressed CD33 was normalized to secondary antibody controls to obtain fold over background values.

Binding result, binds:
B1
B2
B3
B4
B5
B6
